# Measurements published in article PMC4359366, “Lis1 regulates dynein by sterically blocking its mechanochemical cycle” (eLife, 2014).
# Assays:
# [1] = biological target: GST-dynein_(331kDa) (S. cerevisiae); assay: SEC; 400–800 nM dynein and 475–800 nM Lis1 mixed for 10 min at 4°C; Superose 6 PC 3.2/30; 50 mM Tris–HCl pH 8.0, 150 mM potassium acetate, 2 mM magnesium acetate, 1 mM EGTA, 1 mM DTT; fractions on SDS-PAGE with SYPRO Red, bands quantified in ImageJ
# [2] = biological target: T1, short linker dynein DYN1_(314kDa) K3438E, R3445E, F3446D (AAA5 linker-docking mutant), monomeric (S. cerevisiae, UniProt P36022 1365-4092, K3438E | R3445E | F3446D); assay: as above; details: both partners purified
# T1 construct: Cytoplasmic dynein heavy chain (DYN1), S. cerevisiae, 314 kDa motor construct DYN1_(314kDa) (linker truncated at residue 1365) with the AAA5 mutations; also called short linker dynein with AAA5 mutations; GFP-3xHA-DYN1_(314kDa)^K3438E,R3445E,F3446D-gs-DHA
# T1 sequence (P36022 1365-4092 K3438E/R3445E/F3446D): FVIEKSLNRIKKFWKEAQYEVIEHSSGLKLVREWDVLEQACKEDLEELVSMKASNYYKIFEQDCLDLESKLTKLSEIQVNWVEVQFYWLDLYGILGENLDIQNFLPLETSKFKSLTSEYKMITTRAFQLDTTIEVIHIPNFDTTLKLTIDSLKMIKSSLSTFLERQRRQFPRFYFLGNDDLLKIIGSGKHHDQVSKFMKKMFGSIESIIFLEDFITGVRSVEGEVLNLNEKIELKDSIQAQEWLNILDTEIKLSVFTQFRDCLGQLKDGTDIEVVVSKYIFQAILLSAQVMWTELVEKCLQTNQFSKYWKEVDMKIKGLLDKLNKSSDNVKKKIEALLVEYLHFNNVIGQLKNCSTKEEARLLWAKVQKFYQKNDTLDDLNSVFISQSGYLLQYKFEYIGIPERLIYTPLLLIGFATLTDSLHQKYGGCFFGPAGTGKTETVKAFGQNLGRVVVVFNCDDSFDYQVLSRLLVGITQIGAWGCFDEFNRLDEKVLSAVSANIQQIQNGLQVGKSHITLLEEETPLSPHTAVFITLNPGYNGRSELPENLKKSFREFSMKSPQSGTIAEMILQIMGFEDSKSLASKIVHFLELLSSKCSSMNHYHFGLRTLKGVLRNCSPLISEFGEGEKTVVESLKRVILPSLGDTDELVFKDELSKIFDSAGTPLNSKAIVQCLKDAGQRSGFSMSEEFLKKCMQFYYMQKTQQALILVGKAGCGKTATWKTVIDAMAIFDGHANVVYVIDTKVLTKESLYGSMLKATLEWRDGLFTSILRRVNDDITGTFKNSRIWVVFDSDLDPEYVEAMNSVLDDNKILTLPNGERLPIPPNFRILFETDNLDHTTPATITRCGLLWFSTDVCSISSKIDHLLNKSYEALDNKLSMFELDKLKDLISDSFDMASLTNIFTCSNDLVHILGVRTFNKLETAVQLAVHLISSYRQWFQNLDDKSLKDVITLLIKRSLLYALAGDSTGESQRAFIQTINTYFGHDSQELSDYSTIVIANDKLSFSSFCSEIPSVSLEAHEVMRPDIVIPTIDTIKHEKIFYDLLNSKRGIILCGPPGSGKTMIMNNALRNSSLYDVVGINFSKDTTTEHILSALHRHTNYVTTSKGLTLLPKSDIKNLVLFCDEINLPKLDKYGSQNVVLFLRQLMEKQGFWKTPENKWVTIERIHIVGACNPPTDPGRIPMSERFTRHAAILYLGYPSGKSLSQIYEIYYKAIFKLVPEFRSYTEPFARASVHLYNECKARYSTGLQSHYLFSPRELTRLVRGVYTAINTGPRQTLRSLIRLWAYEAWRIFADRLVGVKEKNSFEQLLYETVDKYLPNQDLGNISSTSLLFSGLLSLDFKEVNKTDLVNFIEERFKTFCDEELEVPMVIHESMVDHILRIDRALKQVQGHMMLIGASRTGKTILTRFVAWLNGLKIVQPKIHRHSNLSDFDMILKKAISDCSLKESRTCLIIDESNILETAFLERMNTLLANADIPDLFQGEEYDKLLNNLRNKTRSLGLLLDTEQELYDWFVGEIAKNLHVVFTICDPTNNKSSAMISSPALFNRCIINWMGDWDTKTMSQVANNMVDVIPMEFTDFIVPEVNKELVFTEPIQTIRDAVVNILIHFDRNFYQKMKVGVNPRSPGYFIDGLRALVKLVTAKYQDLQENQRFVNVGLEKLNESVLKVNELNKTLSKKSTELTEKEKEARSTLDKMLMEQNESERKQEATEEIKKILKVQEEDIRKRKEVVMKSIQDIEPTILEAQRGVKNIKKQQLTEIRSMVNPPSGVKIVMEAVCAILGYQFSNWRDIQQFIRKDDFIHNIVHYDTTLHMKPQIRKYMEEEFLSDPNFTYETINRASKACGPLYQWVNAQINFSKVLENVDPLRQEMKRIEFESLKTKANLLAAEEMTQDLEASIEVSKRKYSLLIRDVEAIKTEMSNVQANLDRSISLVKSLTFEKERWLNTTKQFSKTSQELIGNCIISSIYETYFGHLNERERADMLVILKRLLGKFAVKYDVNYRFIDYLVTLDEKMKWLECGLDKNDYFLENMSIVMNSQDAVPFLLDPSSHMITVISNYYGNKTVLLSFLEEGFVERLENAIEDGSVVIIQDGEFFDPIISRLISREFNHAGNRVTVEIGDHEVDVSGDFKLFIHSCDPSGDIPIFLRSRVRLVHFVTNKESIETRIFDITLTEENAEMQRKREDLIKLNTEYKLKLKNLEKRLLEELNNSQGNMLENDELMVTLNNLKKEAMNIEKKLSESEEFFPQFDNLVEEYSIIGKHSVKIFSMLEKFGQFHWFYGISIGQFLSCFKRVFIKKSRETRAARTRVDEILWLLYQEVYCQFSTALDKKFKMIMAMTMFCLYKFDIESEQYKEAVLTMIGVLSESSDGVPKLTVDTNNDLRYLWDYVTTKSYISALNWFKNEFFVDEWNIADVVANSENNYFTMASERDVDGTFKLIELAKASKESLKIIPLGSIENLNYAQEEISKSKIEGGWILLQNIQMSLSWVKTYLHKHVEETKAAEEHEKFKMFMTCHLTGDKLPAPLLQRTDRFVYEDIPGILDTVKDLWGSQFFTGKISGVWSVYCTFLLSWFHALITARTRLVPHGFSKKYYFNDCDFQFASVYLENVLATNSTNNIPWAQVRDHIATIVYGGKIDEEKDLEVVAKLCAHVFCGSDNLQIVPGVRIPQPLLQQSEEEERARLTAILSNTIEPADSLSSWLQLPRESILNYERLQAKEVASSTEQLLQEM
# [3] = biological target: T2, short linker dynein, GFP-3xHA-DYN1_(314kDa)-gs-DHA, monomeric (S. cerevisiae, UniProt P36022 1365-4092); assay: as above; details: both partners purified
# T2 construct: ZZ tag probably cut off by Tev; also called monomeric short linker dynein; short linker construct; not shown: GFP, N-terminal, kept; 3xHA, N-terminal, kept
# T2 sequence (P36022 1365-4092): as the sequence (P36022 1365-4092 K3438E/R3445E/F3446D) above, with E2074K, E2081R, D2082F counted along it
# [4] = biological target: monomeric dynein motor domain, dynein_(331kDa) without tags on the linker (S. cerevisiae); assay: cryo-EM structure; cryo-negative stain EM, single-particle 3D reconstruction; monomeric dynein (80–120 nM) pre-incubated for 10 min with Lis1 dimer at a 1.5-fold excess (120–180 nM); no nucleotide (apyrase 0.14 U/ml, 15 min); 2% uranyl formate
# [5] = biological target: T3, short linker dynein, DYN1_(314kDa), without GFP (S. cerevisiae, UniProt P36022 1365-4092); assay: as above; details: both partners purified
# T3 construct: ZZ tag probably cut off by Tev; also called short linker construct
# T3 sequence (P36022 1365-4092): as the sequence (P36022 1365-4092 K3438E/R3445E/F3446D) above, with E2074K, E2081R, D2082F counted along it
GST-dynein (331kDa) share of the dynein:Lis1 band ratio in the SEC complex peak [1],Lis1 share of the dynein:Lis1 band ratio in the SEC complex peak [1],binding result [2],binding result [3],stoichiometry N (Lis1 propeller per dynein motor domain) [4],binding result [5],Binder
0.88,0.12,–,–,–,–,Lis1^R301A (natural protein) MTNWQQQLPLTDTQKNELDKSVLRYLNWNYKQTVRHEHAQDYESVRHAIVTLSGFLLQESVDRQEFISNNDTSNESMVDIDELLLPKKWNSIVRLQKKIIELEQNTETLVSQIKDLNTQVSELAQFKPTTSNGTSAHNVLKWIPRNLPSCLINVESSVTSVKLHPNLPIVFVATDHGKLYAFDLFNYTIPLASLQSHTKAITSMDVLFTNYTNSSKKNYLVIVTASKDLQIHVFKWVSEECKFQQIRSLLGHEHIVSAVKIWQKNNDVHIASCSRDQTVKIWDFHNGWSLKTFQPHSQWVASIDVLGDYIISGSHDTTLRLTHWPSGNGLSVGTGHEFPIEKVKFIHFIEDSPEIRFRTPSTDRYKNWGMQYCVSASRDRTIKIWEIPLPTLMAHRAPIPNPTDSNFRCVLTLKGHLSWVRDISIRGQYLFSCADDKSVRCWDLNTGQCLHVWEKLHTGFVNCLDLDVDFDSNVTPRQMMVTGGLDCKSNVFMR
0.82,0.18,binds,binds,1,binds,"Lis1 (Pac1), wild type, dimer (natural protein, S. cerevisiae, UniProt P39946 1-494, looked up, Lis1 ortholog Pac1 (PAC1), S. cerevisiae; genomic PAC1 copy with ZZ-Tev in front; A Tev site follows the ZZ tag and a TEV buffer is named for the Lis1 purification, so the ZZ tag was probably cut off; also called WT Lis1; wild-type Lis1) MTNWQQQLPLTDTQKNELDKSVLRYLNWNYKQTVRHEHAQDYESVRHAIVTLSGFLLQESVDRQEFISNNDTSNESMVDIDELLLPKKWNSIVRLQKKIIELEQNTETLVSQIKDLNTQVSELAQFKPTTSNGTSAHNVLKWIPRNLPSCLINVESSVTSVKLHPNLPIVFVATDHGKLYAFDLFNYTIPLASLQSHTKAITSMDVLFTNYTNSSKKNYLVIVTASKDLQIHVFKWVSEECKFQQIRSLLGHEHIVSAVKIWQKNNDVHIASCSRDQTVKIWDFHNGWSLKTFQPHSQWVRSIDVLGDYIISGSHDTTLRLTHWPSGNGLSVGTGHEFPIEKVKFIHFIEDSPEIRFRTPSTDRYKNWGMQYCVSASRDRTIKIWEIPLPTLMAHRAPIPNPTDSNFRCVLTLKGHLSWVRDISIRGQYLFSCADDKSVRCWDLNTGQCLHVWEKLHTGFVNCLDLDVDFDSNVTPRQMMVTGGLDCKSNVFMR"

# The next lines start with the binder.
Binder,GST-dynein (331kDa) share of the dynein:Lis1 band ratio in the SEC complex peak [1],Lis1 share of the dynein:Lis1 band ratio in the SEC complex peak [1],binding result [2],binding result [3],stoichiometry N (Lis1 propeller per dynein motor domain) [4],binding result [5]
Lis1^K437A (natural protein) MTNWQQQLPLTDTQKNELDKSVLRYLNWNYKQTVRHEHAQDYESVRHAIVTLSGFLLQESVDRQEFISNNDTSNESMVDIDELLLPKKWNSIVRLQKKIIELEQNTETLVSQIKDLNTQVSELAQFKPTTSNGTSAHNVLKWIPRNLPSCLINVESSVTSVKLHPNLPIVFVATDHGKLYAFDLFNYTIPLASLQSHTKAITSMDVLFTNYTNSSKKNYLVIVTASKDLQIHVFKWVSEECKFQQIRSLLGHEHIVSAVKIWQKNNDVHIASCSRDQTVKIWDFHNGWSLKTFQPHSQWVRSIDVLGDYIISGSHDTTLRLTHWPSGNGLSVGTGHEFPIEKVKFIHFIEDSPEIRFRTPSTDRYKNWGMQYCVSASRDRTIKIWEIPLPTLMAHRAPIPNPTDSNFRCVLTLKGHLSWVRDISIRGQYLFSCADDASVRCWDLNTGQCLHVWEKLHTGFVNCLDLDVDFDSNVTPRQMMVTGGLDCKSNVFMR,0.85,0.15,–,–,–,–
Lis1^R275A (natural protein) MTNWQQQLPLTDTQKNELDKSVLRYLNWNYKQTVRHEHAQDYESVRHAIVTLSGFLLQESVDRQEFISNNDTSNESMVDIDELLLPKKWNSIVRLQKKIIELEQNTETLVSQIKDLNTQVSELAQFKPTTSNGTSAHNVLKWIPRNLPSCLINVESSVTSVKLHPNLPIVFVATDHGKLYAFDLFNYTIPLASLQSHTKAITSMDVLFTNYTNSSKKNYLVIVTASKDLQIHVFKWVSEECKFQQIRSLLGHEHIVSAVKIWQKNNDVHIASCSADQTVKIWDFHNGWSLKTFQPHSQWVRSIDVLGDYIISGSHDTTLRLTHWPSGNGLSVGTGHEFPIEKVKFIHFIEDSPEIRFRTPSTDRYKNWGMQYCVSASRDRTIKIWEIPLPTLMAHRAPIPNPTDSNFRCVLTLKGHLSWVRDISIRGQYLFSCADDKSVRCWDLNTGQCLHVWEKLHTGFVNCLDLDVDFDSNVTPRQMMVTGGLDCKSNVFMR,0.85,0.15,–,–,–,–
